{"source": "paper PMC5716572", "about": "“Regulation of potassium dependent ATPase (kdp) operon of Deinococcus radiodurans”", "molecules": {"B1": {"name": "PkdpB-38 (dsDNA)", "DNA 1": "AACGGCGCTATGAGTCTTTCTTCTTTCCGGTGGCGGCC", "DNA 2": "GGCCGCCACCGGAAAGAAGAAAGACTCATAGCGCCGTT"}}, "key": {"[1]": {"target": "T1, RR (KdpE-like response regulator) (Deinococcus radiodurans R1 ATCC BAA-816) (UniProt Q9RZP1)", "T1 sequence": "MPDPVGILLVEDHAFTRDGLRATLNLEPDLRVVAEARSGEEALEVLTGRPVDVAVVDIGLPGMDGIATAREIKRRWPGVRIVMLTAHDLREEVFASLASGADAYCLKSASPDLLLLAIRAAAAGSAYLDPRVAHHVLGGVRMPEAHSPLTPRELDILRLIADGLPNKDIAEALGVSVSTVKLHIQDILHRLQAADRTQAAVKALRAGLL", "experiment": "EMSA", "details": "20 mM HEPES pH 7.6, 10 mM (NH4)2SO4, 30 mM KCl, 1 mM EDTA, 1 mM DTT, 0.2% Tween20, 37°C 1 h; 10% native PAGE in 0.5X TBE"}, "[2]": {"target": "T2, RR (KdpE-like response regulator) (Deinococcus radiodurans R1 ATCC BAA-816, UniProt Q9RZP1 1-209)", "T2 sequence": "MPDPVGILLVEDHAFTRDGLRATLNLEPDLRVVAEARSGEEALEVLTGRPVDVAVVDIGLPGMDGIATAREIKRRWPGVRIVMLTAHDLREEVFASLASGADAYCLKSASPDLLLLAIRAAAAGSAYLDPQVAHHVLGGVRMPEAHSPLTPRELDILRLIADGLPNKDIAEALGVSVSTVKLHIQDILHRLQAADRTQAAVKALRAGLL", "experiment": "EMSA", "details": "apparent; Hill coefficient 1.36 ± 0.17; unphosphorylated; 20 mM HEPES pH 7.6, 10 mM (NH4)2SO4, 30 mM KCl, 1 mM EDTA, 1 mM DTT, 0.2% Tween20, 37°C 1 h; 10% native PAGE in 0.5X TBE"}, "[3]": {"target": "T2, RR (KdpE-like response regulator)", "experiment": "EMSA; 12% native PAGE; 20 mM HEPES pH 7.6, 10 mM (NH4)2SO4, 30 mM KCl, 1 mM EDTA, 1 mM DTT, 0.2% Tween20, 37°C 1 h; 10% native PAGE in 0.5X TBE", "details": "protein: recombinant; tags: C-terminal His tag (pET29b NdeI/XhoI, Ni-NTA; position implied by vector); chain copies: 2; label: DIG-ddUTP; blunt"}}}
{"molecule": "GGCCTTGATGAGGTTCTTGTCCTTGGCGTACTTGTTGAGCACGCGGGTGTACGCCGTCTTGAAGCCGGTCAGCGGGGTGCCGCCGTCGCGGGTGCGGATCATGTTGGCGTAGGTCAGGATGTTGTCGCTGGCGTAGGTGTTGGCGTGGATAAA (double strand) [nsDNA (DR_0906 fragment)]", "values": [{"measurement": "binding", "setting": "[1]", "value": "no binding"}]}
{"molecule": "PkdpB-200", "values": [{"measurement": "Kd", "setting": "[2]", "value": 3.62, "unit": "µM"}]}
{"molecule": "B1", "values": [{"measurement": "binding result", "setting": "[3]", "value": "binds"}]}
